Earlier results in paper PMC11816975, “Bioactive Peptides from Milk Proteins with Antioxidant, Anti-Inflammatory, and Antihypertensive Activities” (Foods, 2025).

B1: cLF: isolated camel lactoferrin (protein, UniProt Q9TUM0 20-708, looked up)
Lactotransferrin: ASKKSVRWCTTSPAESSKCAQWQRRMKKVRGPSVTCVKKTSRFECIQAISTEKADAVTLDGGLVYDAGLDPYKLRPIAAEVYGTENNPQTHYYAVAIAKKGTNFQLNQLQGLKSCHTGLGRSAGWNIPMGLLRPFLDWTGPPEPLQKAVAKFFSASCVPCVDGKEYPNLCQLCAGTGENKCACSSQEPYFGYSGAFKCLQDGAGDVAFVKDSTVFESLPAKADRDQYELLCPNNTRKPVDAFQECHLARVPSHAVVARSVNGKEDLIWKLLVKAQEKFGRGKPSGFQLFGSPAGQKDLLFKDSALGLLRISSKIDSGLYLGSNYITAIRGLRETAAEVELRRAQVVWCAVGSDEQLKCQEWSRQSNQSVVCATASTTEDCIALVLKGEADALSLDGGYIYIAGKCGLVPVLAESQQSPESSGLDCVHRPVKGYLAVAVVRKANDKITWNSLRGKKSCHTAVDRTAGWNIPMGLLSKNTDSCRFDEFLSQSCAPGSDPRSKLCALCAGNEEGQNKCVPNSSERYYGYTGAFRCLAENVGDVAFVKDVTVLDNTDGKNTEQWAKDLKLGDFELLCLNGTRKPVTEAESCHLAVAPNHAVVSRIDKVAHLEQVLLRQQAHFGRNGRDCPGKFCLFQSKTKNLLFNDNTECLAKLQGKTTYEEYLGPQYVTAIAKLRRCSTSPLLEACAFLMR
B2: bLF: bovine lactoferrin, orthologue compared with eLF (protein, UniProt P24627 20-708, looked up)
Lactotransferrin: APRKNVRWCTISQPEWFKCRRWQWRMKKLGAPSITCVRRAFALECIRAIAEKKADAVTLDGGMVFEAGRDPYKLRPVAAEIYGTKESPQTHYYAVAVVKKGSNFQLDQLQGRKSCHTGLGRSAGWIIPMGILRPYLSWTESLEPLQGAVAKFFSASCVPCIDRQAYPNLCQLCKGEGENQCACSSREPYFGYSGAFKCLQDGAGDVAFVKETTVFENLPEKADRDQYELLCLNNSRAPVDAFKECHLAQVPSHAVVARSVDGKEDLIWKLLSKAQEKFGKNKSRSFQLFGSPPGQRDLLFKDSALGFLRIPSKVDSALYLGSRYLTTLKNLRETAEEVKARYTRVVWCAVGPEEQKKCQQWSQQSGQNVTCATASTTDDCIVLVLKGEADALNLDGGYIYTAGKCGLVPVLAENRKSSKHSSLDCVLRPTEGYLAVAVVKKANEGLTWNSLKDKKSCHTAVDRTAGWNIPMGLIVNQTGSCAFDEFFSQSCAPGADPKSRLCALCAGDDQGLDKCVPNSKEKYYGYTGAFRCLAEDVGDVAFVKNDTVWENTNGESTADWAKNLNREDFRLLCLDGTRKPVTEAQSCHLAVAPNHAVVSRSDRAAHVKQVLLHQQALFGKNGKNCPDKFCLFKSETKNLLFNDNTECLAKLGGRPTYEEYLGTEYVTAIANLKKCSTSPLLEACAFLTR

How the values were obtained:
[1] = set-up: method as in PMID 23768340; settings: at 100 µg/mL
[2] = tested on: NO production; set-up: method as in PMID 23768340; settings: at 100 µg/mL

Row | Molecule | ferric reducing power [1] [mM Fe^2+] | inhibition of NO production [2] | DPPH• inhibition (at 100 µg/mL, ref Habib et al. 55) [%] | DPPH• radical scavenging capacity (at 500 µg/mL)
1 | B1 | 0.317 | about 5% | 2.77 | 
2 | B2 |  |  |  | approximately 33%
